± gives the half width of the 95% confidence interval.
Legend:
[1] = folding stability dG unfold from trypsin proteolysis; higher = more stable
Outline: (§1)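 Unfolding free energy was derived, per protease or combined, by relating Bayesian-fitted K50 values from sequencing counts to a sequence-predicted unfolded-state K50 and a shared folded-state K50. The underlying digests exposed cysteine-free mini-proteins under 80 residues, in a PA-tagged cDNA display construct, to trypsin and chymotrypsin at 11 threefold-diluted concentrations and to a no-protease condition. A filter kept only designs with AlphaFold2 dimer inter-PAE above 15.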

[2] = folding stability dG unfold from chymotrypsin proteolysis; higher = more stable
Outline: as §1

[3] = folding stability dG unfold (combined trypsin and chymotrypsin); higher = more stable
Outline: as §1

Sequence: SGMSMAKDAKPIYIEYRDPNGKSYRVTEVKVNEDGTLTITIEYPDSIKTYTLPPNANYPLSSSLILSTVESA [r9_993_JUSTAS]
- folding stability dG unfold [1]: 1.4 ± 0.076 kcal/mol
- folding stability dG unfold [2]: 1.43 ± 0.13 kcal/mol
- folding stability dG unfold [3]: 1.45 ± 0.14 kcal/mol

Sequence: SGMVEVKVTVPPGPATLTATPSDGSTYSKSIPANSEVTFTFPVPASLPSSTTITFTLTFPDTGTTTTTSVSA [r9_275_JUSTAS]
- folding stability dG unfold [1]: 1.28 ± 0.051 kcal/mol
- folding stability dG unfold [2]: 1.26 ± 0.25 kcal/mol
- folding stability dG unfold [3]: 1.28 ± 0.26 kcal/mol

Sequence: SGPALEILRAASEEEGVPVLAEVVPDADGNPVIPAVVWSPEDIEAGELPGEVKEAPITVDGKTYRVVLFASA [r9_489_TrMRF]
- folding stability dG unfold [1]: -0.224 ± 0.11 kcal/mol
- folding stability dG unfold [2]: -0.0942 ± 0.18 kcal/mol
- folding stability dG unfold [3]: -0.0573 ± 0.086 kcal/mol

Sequence: SGPFQFFVKIEYKGKNGKTQERELPINMPPGDFDKFIEEILDDPNLEGADDVEIDVYMAGTGRPQEIEIPSA [r9_97_TrROS]
- folding stability dG unfold [1]: 0.678 ± 0.061 kcal/mol
- folding stability dG unfold [2]: 1.22 ± 0.11 kcal/mol
- folding stability dG unfold [3]: 1.07 ± 0.092 kcal/mol

Sequence: SGPTVTYKVPYTRDVAVPTVKIGAKVTTTTTVTKLPNGTLASTSTSADVELTLNLPPDTPLSPNYLSTGGSA [r9_277_JUSTAS]
- folding stability dG unfold [1]: -0.0817 ± 0.21 kcal/mol
- folding stability dG unfold [2]: -0.175 ± 0.38 kcal/mol
- folding stability dG unfold [3]: -0.0833 ± 0.2 kcal/mol

Sequence: SGSLSIEFSSTEPSSPGSITLSKLFPEPEADRATHTIKLPNSTIELEFDSAEDLIKNVEKLLKELGNPGKSA [r9_258_JUSTAS]
- folding stability dG unfold [1]: 0.297 ± 0.058 kcal/mol
- folding stability dG unfold [2]: -0.0786 ± 0.18 kcal/mol
- folding stability dG unfold [3]: 0.115 ± 0.12 kcal/mol

Sequence: SGSPDELEVVESEETVNIPPEELEAKYGIKVPENSTVVIKTKTLKPPSGNDIVEPEIKIYDPVTNEWIELSA [r9_349_JUSTAS]
- folding stability dG unfold [1]: -0.537 ± 0.13 kcal/mol
- folding stability dG unfold [2]: -0.474 ± 0.27 kcal/mol
- folding stability dG unfold [3]: -0.47 ± 0.25 kcal/mol

Sequence: SGTRTVTVTGAVLSRLPDGTLVTDPGEAPVTVPVPPPKPRIEVPPELREKLREAAEKLGLELTEEDIETASA [r9_487_TrMRF]
- folding stability dG unfold [1]: -0.208 ± 0.36 kcal/mol
- folding stability dG unfold [2]: -0.896 ± 0.9 kcal/mol
- folding stability dG unfold [3]: -0.365 ± 0.26 kcal/mol

Sequence: SGVQLEWKYDPEDNKREIKISIFFPADDPEKKKQFAKVIAKEIENMFQEQGWKPKKIDIEVMRMPPGQPLSA [r9_117_TrROS]
- folding stability dG unfold [1]: 0.889 ± 0.049 kcal/mol
- folding stability dG unfold [2]: 1.2 ± 0.063 kcal/mol
- folding stability dG unfold [3]: 1.02 ± 0.067 kcal/mol

Sequence: SGYLDAPVKDIKVEKKPIPTSGKVTYTFEAETEDGKPVRVEYNPVTGKIVFGLPPGFKIKPGKPAEVVVGSA [r9_509_TrMRF]
- folding stability dG unfold [1]: 0.16 ± 0.081 kcal/mol
- folding stability dG unfold [2]: 0.885 ± 0.2 kcal/mol
- folding stability dG unfold [3]: 0.718 ± 0.13 kcal/mol

Sequence: SHMVTVTIYKNGVKVKETEIPLEEVEKMPEEEIIEFAAEIAKKNPGVNYTFTITRPSGPSTVSIDGPEKLKS [r1_477_JUSTAS]
- folding stability dG unfold [1]: 0.762 ± 0.12 kcal/mol
- folding stability dG unfold [2]: 1.55 ± 0.14 kcal/mol
- folding stability dG unfold [3]: 1.28 ± 0.21 kcal/mol

Sequence: SHTTTEPATGVTVEVVPSPDGTHVVTVKKPGGEVVKTVTVPSGPRPPGSTTPLTVALTDLPPDVETSVDLSS [r1_263_JUSTAS]
- folding stability dG unfold [1]: 0.416 ± 0.067 kcal/mol
- folding stability dG unfold [2]: 0.141 ± 0.077 kcal/mol
- folding stability dG unfold [3]: 0.232 ± 0.2 kcal/mol

Sequence: SIEVEKTPDGKFEIENDNGWKVEIEVFPGMIEIKIKPVKVYVPDGKWFETPEEAEKMQEKNGVPITEDDLSA [r9_660_TrROS]
- folding stability dG unfold [1]: 0.615 ± 0.12 kcal/mol
- folding stability dG unfold [2]: 1.08 ± 0.071 kcal/mol
- folding stability dG unfold [3]: 0.743 ± 0.19 kcal/mol

Sequence: SIIIQFDNPEEAKENAEDFINEFQDEFGPGQKIPITIHDPGGDPATFPIEIEPPPPPVEYDEENGKLKPDSA [r9_596_TrROS]
- folding stability dG unfold [1]: 1.13 ± 0.18 kcal/mol
- folding stability dG unfold [2]: 1.7 ± 0.17 kcal/mol
- folding stability dG unfold [3]: 1.51 ± 0.43 kcal/mol

Sequence: SIIVEPLPDNTFIAYFPETDSVIEIRVDPSTGKAHAIAELPGEPVEATFDPRKGVLVIELPNGRIVLPLLSA [r9_541_TrMRF]
- folding stability dG unfold [1]: 2.28 ± 0.051 kcal/mol
- folding stability dG unfold [2]: 1.7 ± 0.065 kcal/mol
- folding stability dG unfold [3]: 2.01 ± 0.088 kcal/mol

Sequence: SIKFPDGSEIEFEWSEDKEYEVELPNGPIVKIKKVIKEGESWIVEVEFEDGSKVILEVDPNNPEEVQKAIAS [r1_66_TrMRF]
- folding stability dG unfold [1]: 1.77 ± 0.086 kcal/mol
- folding stability dG unfold [2]: 2.19 ± 0.072 kcal/mol
- folding stability dG unfold [3]: 2.06 ± 0.1 kcal/mol

Sequence: SKFDPDDPGQPVRFTVMIPVPEDAMKNGDLEEVRDKVEEAADMFRPHGMEVKDIEVPPEQGWVMVKFEMPSA [r9_75_TrROS]
- folding stability dG unfold [1]: -0.824 ± 0.34 kcal/mol
- folding stability dG unfold [2]: -0.222 ± 0.43 kcal/mol
- folding stability dG unfold [3]: -0.0605 ± 0.65 kcal/mol

Sequence: SKGTFRAVLPLETLKELIERFKSKGYRIEVKPLSIKPFEVPGIREDGTPELFPVVEVEAEIEIYPPEDPASA [r9_991_TrMRF]
- folding stability dG unfold [1]: 1.671 ± 0.015 kcal/mol
- folding stability dG unfold [2]: 1.9 ± 0.063 kcal/mol
- folding stability dG unfold [3]: 1.82 ± 0.066 kcal/mol

Sequence: SKIKIEVDEETGVITVTVEVDNLSEEEILDKLKEELEKLGFEVEVKVVKIEEVNGKVVVTVEIKIKPEKLSA [r9_347_TrROS_Hall]
- folding stability dG unfold [1]: 1.75 ± 0.11 kcal/mol
- folding stability dG unfold [2]: 0.9 ± 0.073 kcal/mol
- folding stability dG unfold [3]: 1.45 ± 0.093 kcal/mol

Sequence: SKIKIKAKDKKTNIPIDEIDIYPLEDGSYGIKIIFTFPKEKKEITIPIPKNKKIEEFIKALGLEEIEIDASA [r9_492_TrMRF]
- folding stability dG unfold [1]: 1 ± 0.1 kcal/mol
- folding stability dG unfold [2]: 2.33 ± 0.13 kcal/mol
- folding stability dG unfold [3]: 1.79 ± 0.23 kcal/mol

Sequence: SKIKILIAMTEDEIKKLAEELKKKGYEIKIKVKKIEKKKVKVKNKDGKTYEKEVVLVEVEIEIVPKGVKPSA [r9_991_TrROS_Hall]
- folding stability dG unfold [1]: 2.73 ± 0.43 kcal/mol
- folding stability dG unfold [2]: 3.98 ± 0.32 kcal/mol
- folding stability dG unfold [3]: 3.27 ± 0.73 kcal/mol

Sequence: SKIKKIKRVEIFKKKEKGYVVKITVEIDGKEYEFTVPAGMSLEEALKELLKNKDVKIKSVEIKPVSKEELSA [r9_607_TrROS_Hall]
- folding stability dG unfold [1]: 0.0722 ± 0.22 kcal/mol
- folding stability dG unfold [2]: 0.734 ± 0.18 kcal/mol
- folding stability dG unfold [3]: 0.595 ± 0.29 kcal/mol

Sequence: SKIKPGDVVTIMFPFPPGDPDQIREWAYWIARKLGPDVKVKSVEYNPNDPRYVQIEVRVPGGKITIHIMWSA [r9_1079_TrROS]
- folding stability dG unfold [1]: 2.7 ± 0.06 kcal/mol
- folding stability dG unfold [2]: 4.25 ± 0.076 kcal/mol
- folding stability dG unfold [3]: 3.7 ± 0.12 kcal/mol

Sequence: SKIRIEWPDETQEIKIPKDASVAIDPGNGHIAIHGPDGEALGFPLGPNWKIEPDDDEIEITIPPPKPEDPSA [r9_653_TrROS]
- folding stability dG unfold [1]: -0.118 ± 0.15 kcal/mol
- folding stability dG unfold [2]: 0.141 ± 0.056 kcal/mol
- folding stability dG unfold [3]: 0.158 ± 0.2 kcal/mol

Sequence: SKKIKLSEEMKEAIKEAVKKAKPGEKVEITIKLKDGSIIKIEIYPDGTIKISVFDKNGKKIKEFEIKIKPSA [r9_132_TrROS_Hall]
- folding stability dG unfold [1]: 1.43 ± 0.075 kcal/mol
- folding stability dG unfold [2]: 2.59 ± 0.12 kcal/mol
- folding stability dG unfold [3]: 1.81 ± 0.44 kcal/mol

Sequence: SKKKKIKKITLTFTTSDGSTITIEIDADQTVTITLPDGSTITITFDKDTGILTITVTNKDGSKQEFKIELSA [r9_99_TrROS_Hall]
- folding stability dG unfold [1]: 1.82 ± 0.075 kcal/mol
- folding stability dG unfold [2]: 3.08 ± 0.051 kcal/mol
- folding stability dG unfold [3]: 2.6 ± 0.11 kcal/mol

Sequence: SKKPDQPPKTVPIEIWVPLPPGQTPEWREMAEEFAEIFADELQQEGFKNVTVEVEPNKDGWVHIDAEVQVSA [r9_865_TrROS]
- folding stability dG unfold [1]: 0.821 ± 0.15 kcal/mol
- folding stability dG unfold [2]: -0.283 ± 0.21 kcal/mol
- folding stability dG unfold [3]: 0.322 ± 0.26 kcal/mol

Sequence: SKKPDYVILIEIEVEKNENGEKTIKKKIIIYDKNGKKKLIAEEEITIEVNGIKIKIKIKIFPKGASLEELSA [r9_1113_TrROS_Hall]
- folding stability dG unfold [1]: 3.51 ± 0.26 kcal/mol
- folding stability dG unfold [2]: 2.23 ± 0.16 kcal/mol
- folding stability dG unfold [3]: 2.87 ± 0.2 kcal/mol

Sequence: SKKPKIKIEIEIVEITEVKYDKKTNKITVKVKVKIKIEVEVNGKKKKIEIEIPKNMTLEEILKKLKELLKSA [r9_656_TrROS_Hall]
- folding stability dG unfold [1]: 2.15 ± 0.44 kcal/mol
- folding stability dG unfold [2]: 1.99 ± 0.12 kcal/mol
- folding stability dG unfold [3]: 2.28 ± 0.58 kcal/mol

Sequence: SKKTITITIEDKETGLKVEITINEDGTITIKVYDKDGKLVAEVKAKIKLVKDKDGKIRLVIEEIEIKVKPSA [r9_434_TrROS_Hall]
- folding stability dG unfold [1]: 3.87 ± 0.46 kcal/mol
- folding stability dG unfold [2]: 3.04 ± 0.13 kcal/mol
- folding stability dG unfold [3]: 3.61 ± 0.44 kcal/mol

Sequence: SKKTIYIVNEDGSIIRFDEETGEITIFNKETGKEVKIKVEKKGNELIITIEVNGKKYKIKIPKGDIIPIKSA [r9_239_TrROS_Hall]
- folding stability dG unfold [1]: 2.32 ± 0.062 kcal/mol
- folding stability dG unfold [2]: 4.16 ± 0.07 kcal/mol
- folding stability dG unfold [3]: 3.68 ± 0.24 kcal/mol

Sequence: SKKVKIVIKIKVEVTNKDGKKKTFEFTLVIELSEEEIEKLKKKIEDLLNELKKKYPNIKKVEITEIKILPSA [r9_436_TrROS_Hall]
- folding stability dG unfold [1]: 3.59 ± 0.26 kcal/mol
- folding stability dG unfold [2]: 4.4 ± 0.32 kcal/mol
- folding stability dG unfold [3]: 4.31 ± 0.62 kcal/mol

Sequence: SKKVTLPIYFPETGEVVTIDLDELAKALGVDPDKLTLTVVSSGKGRVYRIEVFKDGIRIEEIGDVPPELLSA [r9_819_TrMRF]
- folding stability dG unfold [1]: 2.2 ± 0.03 kcal/mol
- folding stability dG unfold [2]: 2.848 ± 0.017 kcal/mol
- folding stability dG unfold [3]: 2.63 ± 0.05 kcal/mol

Sequence: SKMYLVKIKIEVYKDGKLVKEEEIEIEVSEEEAKKLAEKLKEELPGYKVKIEIEVREIEPEDEELLKALESA [r9_782_TrROS_Hall]
- folding stability dG unfold [1]: 2.69 ± 0.15 kcal/mol
- folding stability dG unfold [2]: 4.12 ± 0.054 kcal/mol
- folding stability dG unfold [3]: 3.61 ± 0.12 kcal/mol

Sequence: SKPGKTIMIMITMDNIKEFLEELPLEPNMEVEIMFMNPNGKMRTLTIRNGEIDSIEPFPNFPDYWMIMIKSA [r9_849_TrROS]
- folding stability dG unfold [1]: 2.69 ± 0.071 kcal/mol
- folding stability dG unfold [2]: 2.92 ± 0.07 kcal/mol
- folding stability dG unfold [3]: 2.78 ± 0.24 kcal/mol

Sequence: SKPVLVKVKIVTKNKNGKKIEKELVIEMSEEDLEKLLEELLNDPNLKDVEKIEIEVVDAETGEVYTFTFPSA [r9_97_TrROS_Hall]
- folding stability dG unfold [1]: 2.01 ± 0.19 kcal/mol
- folding stability dG unfold [2]: 3.15 ± 0.062 kcal/mol
- folding stability dG unfold [3]: 2.89 ± 0.14 kcal/mol
